Assay results from patent publication US20250090677A1 (MULTITUDE THERAPEUTICS, published 2025).
Read-outs that look alike come from different tables or passages of the source.

Columns and labels:
[1] = molecular target: T1, CDH6 on the cell surface of OVCAR-3 cells (human ovarian cancer cells) (human, UniProt P55285 54-790); experiment: flow cytometry (FACS) on OVCAR-3 cells, antibody titration, labelled secondary antibody, MFI
T1 construct: whole, on cells; also called CDH6-positive human ovarian cancer cell line OVCAR-3
T1 sequence (looked up): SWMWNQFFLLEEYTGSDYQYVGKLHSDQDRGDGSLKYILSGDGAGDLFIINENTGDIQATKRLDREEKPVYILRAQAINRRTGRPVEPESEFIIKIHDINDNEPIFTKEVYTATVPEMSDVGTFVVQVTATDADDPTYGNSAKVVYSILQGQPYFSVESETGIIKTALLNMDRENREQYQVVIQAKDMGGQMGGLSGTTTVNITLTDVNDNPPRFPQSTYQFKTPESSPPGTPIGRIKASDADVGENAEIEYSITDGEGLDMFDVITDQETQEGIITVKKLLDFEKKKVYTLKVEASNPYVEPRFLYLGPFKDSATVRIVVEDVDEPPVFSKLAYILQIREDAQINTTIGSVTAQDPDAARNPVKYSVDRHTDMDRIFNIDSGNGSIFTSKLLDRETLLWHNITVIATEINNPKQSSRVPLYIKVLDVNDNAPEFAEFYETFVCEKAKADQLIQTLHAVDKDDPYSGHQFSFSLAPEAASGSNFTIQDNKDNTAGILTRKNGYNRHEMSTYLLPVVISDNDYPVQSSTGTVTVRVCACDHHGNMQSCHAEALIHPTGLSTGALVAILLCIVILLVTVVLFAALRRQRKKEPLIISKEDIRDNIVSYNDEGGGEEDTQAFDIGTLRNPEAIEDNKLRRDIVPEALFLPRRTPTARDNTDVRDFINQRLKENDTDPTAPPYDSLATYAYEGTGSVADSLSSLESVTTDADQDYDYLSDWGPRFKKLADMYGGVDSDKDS

[2] = molecular target: T2, recombinant protein CDH6 (UniProt P55285 54-615); experiment: ELISA, CDH6 coated; antibody 100 ng/mL
T2 construct: also called CDH6 recombinant protein; CDH6 antigen
T2 sequence (looked up): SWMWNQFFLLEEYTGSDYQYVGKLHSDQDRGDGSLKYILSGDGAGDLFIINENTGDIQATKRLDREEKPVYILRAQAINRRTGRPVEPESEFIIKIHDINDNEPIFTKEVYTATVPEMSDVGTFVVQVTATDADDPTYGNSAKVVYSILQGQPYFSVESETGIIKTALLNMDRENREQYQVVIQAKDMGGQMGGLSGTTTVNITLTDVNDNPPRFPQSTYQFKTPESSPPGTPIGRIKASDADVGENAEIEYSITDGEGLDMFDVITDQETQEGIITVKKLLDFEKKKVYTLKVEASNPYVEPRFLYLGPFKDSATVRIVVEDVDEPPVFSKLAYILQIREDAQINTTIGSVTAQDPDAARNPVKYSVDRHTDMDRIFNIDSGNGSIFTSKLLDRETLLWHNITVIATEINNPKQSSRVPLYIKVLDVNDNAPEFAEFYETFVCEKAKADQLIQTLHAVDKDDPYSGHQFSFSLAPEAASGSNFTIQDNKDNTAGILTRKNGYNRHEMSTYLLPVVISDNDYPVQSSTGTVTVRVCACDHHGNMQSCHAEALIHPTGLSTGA
Protocol: (§1) The recombinant protein CDH6 was coated on ELISA plates at 1 μg/mL overnight at 4° C.; after being washed with PBST, the plate was added with 10% fetal bovine serum, and the mixture was blocked at 37° C. for 1 h; the plate was added with 13 monoclonal antibodies of CDH6 with different dilutions (0.1 ng/mL to 100 ng/mL), and the mixture was reacted at 37° C. for 1 h; after being washed with PBST, the plate was added with horseradish peroxidase-labeled goat anti-human IgG secondary antibody (Goat anti Mouse (HRP), Thermo Fisher Scientific), and the mixture was reacted at 37° C. for 30 min; after the plate was repeatedly washed with PBST 5 times, the remaining droplets on the absorbent paper were patted as much as possible; each well of the plate was added with 100 μL of TMB (eBioscience) and placed in the dark at room temperature (20±5° C.) for 1.5 min; each well of the plate was added with 100 μL of 2 N H₂SO₄ stop buffer for stopping substrate reaction, OD values at 450 nm were read using a microplate reader, and the binding ability of the antibody to the target antigen CDH6 was analyzed.

[3] = molecular target: T2, recombinant protein CDH6; experiment: ELISA, CDH6 coated; antibody 50 ng/mL
Protocol: as §1

[4] = molecular target: T2, recombinant protein CDH6; experiment: ELISA, CDH6 coated; antibody 0.20 ng/mL
Protocol: as §1

[5] = molecular target: T2, recombinant protein CDH6; experiment: ELISA, CDH6 coated; antibody 0.10 ng/mL
Protocol: as §1

[6] = molecular target: T2, recombinant protein CDH6; experiment: ELISA, CDH6 coated; antibody 0.78 ng/mL
Protocol: as §1

[7] = molecular target: T2, recombinant protein CDH6; experiment: ELISA, CDH6 coated; antibody 6.25 ng/mL
Protocol: as §1

[8] = molecular target: T2, recombinant protein CDH6; experiment: ELISA, CDH6 coated; antibody 0.39 ng/mL
Protocol: as §1

[9] = molecular target: T2, recombinant protein CDH6; experiment: ELISA, CDH6 coated; antibody 3.13 ng/mL
Protocol: as §1

[10] = molecular target: T2, recombinant protein CDH6; experiment: ELISA, CDH6 coated at 1 ug/mL
Protocol: as §1

[11] = molecular target: T2, recombinant protein CDH6; experiment: ELISA, CDH6 coated; antibody 25 ng/mL
Protocol: as §1

[12] = molecular target: T2, recombinant protein CDH6; experiment: ELISA, CDH6 coated; antibody 12.5 ng/mL
Protocol: as §1

[13] = molecular target: T2, recombinant protein CDH6; experiment: ELISA, CDH6 coated; antibody 1.56 ng/mL
Protocol: as §1

[14] = molecular target: T1, CDH6 on the cell surface of OVCAR-3 …; experiment: flow cytometry (FACS) on OVCAR-3 cells, antibody titration, labelled secondary antibody, MFI; remark: listed apart in the source
Protocol: The binding EC50 of the humanized antibodies on tumor cell were tested as follow. Human ovarian cancer cell line OVCAR-3(purchased from National Collection of Authenticated Cell Cultures) cell culture was maintained in vitro as independent monolayer cultures at 37° C. in an atmosphere of 5% CO₂. The cells were harvested using trypsin-EDTA partial digestion followed by centrifugation at 1000 rpm for 5 minutes. The cell was resuspended in cold PBS and serial dilution of Ch069707 and CL069707-H1L1, CL069707-H1L2, CL069707-H2L1 and CL069707-H2L2 antibodies were added. Ch069707 antibody was a chimeric antibody. The variable regions were the same as those of CL069707, and the constant region was the same as human IgG1 constant regions (SEQ ID NO: 70 and SEQ ID NO: 71). The cell solutions were mixed, incubated at 4° C. and washed with cold PBS prior to addition of secondary antibody conjugates (for detection purposes). After incubation at 4° C., the cells were washed with PBS, and then subjected to flow cytometry (FACS) analysis.

Binder	EC50 (read off the curve) [1] [nM]	OD450 [2] [OD450]	OD450 [3] [OD450]	OD450 [4] [OD450]	OD450 [5] [OD450]	OD450 [6] [OD450]	OD450 [7] [OD450]	OD450 [8] [OD450]	OD450 [9] [OD450]	sensitivity [10] [ng/mL]	OD450 [11] [OD450]	OD450 [12] [OD450]	OD450 [13] [OD450]	EC50 (read off the curve) [14] [nM]
CL069463-H1L1 (antibody, human IgG1, kappa, V domains shown, Humanized IgG1/kappa) VH: EVQLVESGGGLVQPSGSLKLSCAASGFTFNTYALTWVRQASGKGLEWVGRIKSKNKDYETYYADSVKDRFTISRDDSISTLYLQMNSLKTEDTALYYCVRQNWNYFDYWGQGTMLTVSS VL: DIQMTQSPSSLSASVGQRVTITCRASENIYYSLAWYQQKPGKPPRLLIYNANSLKDGVPSRFSGSGSGTQYTMTITSMQPEDFATYYCQQAYDVPPTFGGGTKLEIKR	~4	–	–	–	–	–	–	–	–	–	–	–	–	–
CL069463 antibody (antibody, V domains shown, Mouse monoclonal antibody from hybridoma, purified from ascites with Protein A/G; also called #13; No. 13) VH: EVQLVESGGGLVQPKGSLKLSCAASGFTFNTYALTWVRQAPGKGLEWVGRIKSKNKDYETYYADSVKDRFTISRNDSQSLLYLQMNNLKTEDTAIYYCVRQNWNYFDYWGQGTTLTVSS VL: DIQMTQSPASLAASVGETVTITCRASENIYYSLAWYQQRQGKSPQLLIYNANSLKDGVPSRFSGSGSGTQYSMKINSMQPEDTATYFCQQAYDVPPTFGGGTKLEIK	–	2.62	2.32	0.086	0.073	0.211	0.975	0.139	0.596	≤ 3.12	1.8	1.7	0.374	–
CL069439 antibody (antibody, V domains shown, Mouse monoclonal antibody from hybridoma, purified from ascites with Protein A/G; also called #16; No. 16) VH: EVQLQQSGTELVRTGASVKISCKASGYSFTGYYIHWIKQSHGESLEWIGYISCFNGDTSYNQNFKDRATFNVDTSSSTAYMQFISLTSEDSAVYYCVRGRYGNFNYFDYWGQGTTLTVSS VL: DIVLTQSPASLAVSLGQRATISCRASESVEFYGTSLMQWFQQKPGHPPQLLIYATSNVDSGVPARFSASGSGTDFSLNIHPVEEADIAMYFCQQSRRIPWTFGGGTKLEIK	–	3.9	3.89	0.181	0.106	0.647	2.82	0.255	1.87	≤ 1	3.69	3.62	1.11	–
CL069066 antibody (antibody, V domains shown, Mouse monoclonal antibody from hybridoma, purified from ascites with Protein A/G; also called #4; No. 4) VH: EVKLLESGGGLVQPGGSLKLSCAASGFDFSRYWMTWVRQAPGKGLEWIGEINPDSSTINYTPSLKDKFIISRDNAKNTLYLQMNKVTSEDTALYYCTRRPHYYGYFDSWGQGTTLTVSS VL: DIVLTQSPASLAVSLGQRATISCRASESVEYYGTTLMQWYQQKPGQPPQLLIYAGSNVESGVPARFSGSGSGTEFSLNIHPVEEDDIGMYFCQQSRKVPWTFGGGTKLEIK	–	2.38	2.11	0.05	0.048	0.094	0.577	0.063	0.3	≤ 6.3	1.69	1.08	0.17	–
CL069707-H1L2 (antibody, human IgG1, kappa, V domains shown, Humanized IgG1/kappa, produced in 293 cells) VH: EVQLVESGGGLVQPGGSLRLSCAASGFTFTTYAMNWVRQAPGKGLEWVARIRIKNNNYATYYADSVTDRFTISRDDSKNSLYLQMNSLKTEDTAVYYCVRPDYGNYGLAYWGQGTLVTVSS VL: DIQLTQSPSSLSASVGDRVTITCSASSSISSHYLHWYQQKPGKSPKLLIYRSFYLASGVPLRFSGSGSGTDFTLTISSLQPEDFATYYCQQDIVPLTFGQGTKLEIKR	–	–	–	–	–	–	–	–	–	–	–	–	–	~1
CL069707 antibody (antibody, V domains shown, Mouse monoclonal antibody from hybridoma, purified from ascites with Protein A/G; also called #23; No. 23) VH: EVHLVESGGGLVQPKGSLKLSCVASGFTFTTYAMNWVRQAPGKGLEWVARIRIKNNNYATYYADSVTDRFTISRDDSQSMLYLQMNNLKTEDTAMYYCVRPDYGNYGLAYWGQGTLVTVSA VL: EIVLTQSPTTMAASPGEKITITCSASSSISSHYLHWYQQKPGFSPKLLIYRSFYLASGVPLRFTGSGSGTSYSLTIGTMEAEDVATYYCQQDIVPLTFGAGTKLELK	–	1.41	1.33	0.101	0.069	0.305	1.01	0.165	0.831	≤ 1.56	1.18	1.27	0.577	–
CL069707-H2L2 (antibody, human IgG1, kappa, V domains shown, Humanized IgG1/kappa, produced in 293 cells) VH: EVQLVESGGGLVQPGGSLRLSCAASGFTFTTYAMNWVRQAPGKGLEWVGRIRIKNNNYATYYADSVTDRFTISRDDSKNSLYLQMNSLKTEDTAVYYCVRPDYGNYGLAYWGQGTLVTVSS VL: DIQLTQSPSSLSASVGDRVTITCSASSSISSHYLHWYQQKPGKSPKLLIYRSFYLASGVPLRFSGSGSGTDFTLTISSLQPEDFATYYCQQDIVPLTFGQGTKLEIKR	–	–	–	–	–	–	–	–	–	–	–	–	–	~1
CL069707-H2L1 (antibody, human IgG1, kappa, V domains shown, Humanized IgG1/kappa, produced in 293 cells) VH: EVQLVESGGGLVQPGGSLRLSCAASGFTFTTYAMNWVRQAPGKGLEWVGRIRIKNNNYATYYADSVTDRFTISRDDSKNSLYLQMNSLKTEDTAVYYCVRPDYGNYGLAYWGQGTLVTVSS VL: DIQLTQSPSSLSASVGDRVTITCSASSSISSHYLHWYQQKPGKSPKLLIYRSFYLASGVPSRFSGSGSGTDFTLTISSLQPEDFATYYCQQDIVPLTFGQGTKLEIKR	–	–	–	–	–	–	–	–	–	–	–	–	–	~1
